Test results from patent US5714144A, “Human tissue-type plasminogen activator variant” (Genentech, Inc., priority 1995, dated 1998).

Tests used:
[1] = test system: fibrin; details: versus t-PA control
[2] = removal of sialic acid or chemical modification of carbohydrate; cited from earlier work

Molecule | fibrin stimulation and specific activity [1] | half-life change [2]
glutamine117 glutamic acid275 t-PA: t-PA Carbohydrate Variant Gln117 Glu275 Equivalent (protein, UniProt P00750 36-562, looked up, variant N117Q R275E) Tissue-type plasminogen …: SYQVICRDEKTQMIYQQHQSWLRPVLRSNRVEYCWCNSGRAQCHSVPVKSCSEPRCFNGGTCQQALYFSDFVCQCPEGFAGKCCEIDTRATCYEDQGISYRGTWSTAESGAECTNWQSSALAQKPYSGRRPDAIRLGLGNHNYCRNPDRDSKPWCYVFKAGKYSSEFCSTPACSEGNSDCYFGNGSAYRGTHSLTESGASCLPWNSMILIGKVYTAQNPSAQALGLGKHNYCRNPDGDAKPWCHVLKNRRLTWEYCDVPSCSTCGLRQYSQPQFEIKGGLFADIASHPWQAAIFAKHRRSPGERFLCGGILISSCWILSAAHCFQERFPPHHLTVILGRTYRVVPGEEEQKFEVEKYIVHKEFDDDTYDNDIALLQLKSDSSRCAQESSVVRTVCLPPADLQLPDWTECELSGYGKHEALSPFYSERLKEAHVRLYPSSRCTSQHLLNRTVTDNMLCAGDTRSGGPQANLHDACQGDSGGPLVCLNDGRMTLVGIISWGLGCGQKDVPGVYTKVTNYLDWIRDNMRP | superior to t-PA control in fibrin stimulation and specific activity | 
ceruloplasmin: ceruloplasmin after removal of sialic acid (protein, UniProt P00450 20-1065, looked up, desialylated, ceruloplasmin after removal of sialic acid) Ceruloplasmin: KEKHYYIGIIETTWDYASDHGEKKLISVDTEHSNIYLQNGPDRIGRLYKKALYLQYTDETFRTTIEKPVWLGFLGPIIKAETGDKVYVHLKNLASRPYTFHSHGITYYKEHEGAIYPDNTTDFQRADDKVYPGEQYTYMLLATEEQSPGEGDGNCVTRIYHSHIDAPKDIASGLIGPLIICKKDSLDKEKEKHIDREFVVMFSVVDENFSWYLEDNIKTYCSEPEKVDKDNEDFQESNRMYSVNGYTFGSLPGLSMCAEDRVKWYLFGMGNEVDVHAAFFHGQALTNKNYRIDTINLFPATLFDAYMVAQNPGEWMLSCQNLNHLKAGLQAFFQVQECNKSSSKDNIRGKHVRHYYIAAEEIIWNYAPSGIDIFTKENLTAPGSDSAVFFEQGTTRIGGSYKKLVYREYTDASFTNRKERGPEEEHLGILGPVIWAEVGDTIRVTFHNKGAYPLSIEPIGVRFNKNNEGTYYSPNYNPQSRSVPPSASHVAPTETFTYEWTVPKEVGPTNADPVCLAKMYYSAVEPTKDIFTGLIGPMKICKKGSLHANGRQKDVDKEFYLFPTVFDENESLLLEDNIRMFTTAPDQVDKEDEDFQESNKMHSMNGFMYGNQPGLTMCKGDSVVWYLFSAGNEADVHGIYFSGNTYLWRGERRDTANLFPQTSLTLHMWPDTEGTFNVECLTTDHYTGGMKQKYTVNQCRRQSEDSTFYLGERTYYIAAVEVEWDYSPQREWEKELHHLQEQNVSNAFLDKGEFYIGSKYKKVVYRQYTDSTFRVPVERKAEEEHLGILGPQLHADVGDKVKIIFKNMATRPYSIHAHGVQTESSTVTPTLPGETLTYVWKIPERSGAGTEDSACIPWAYYSTVDQVKDLYSGLIGPLIVCRRPYLKVFNPRRKLEFALLFLVFDENESWYLDDNIKTYSDHPEKVNKDDEEFIESNKMHAINGRMFGNLQGLTMHVGDEVNWYLMGMGNEIDLHTVHFHGHSFQYKHRGVYSSDVFDIFPGTYQTLEMFPRTPGIWLLHCHVTDHIHAGMETTYTVLQNEDTKSG |  | decreases its half-life dramatically
